Biological target: CD71 (transferrin receptor), used in ELISA (UniProt P02786 89-760)
Test: ELISA

CD71 (transferrin receptor), used in ELISA, sequence (P02786 89-760): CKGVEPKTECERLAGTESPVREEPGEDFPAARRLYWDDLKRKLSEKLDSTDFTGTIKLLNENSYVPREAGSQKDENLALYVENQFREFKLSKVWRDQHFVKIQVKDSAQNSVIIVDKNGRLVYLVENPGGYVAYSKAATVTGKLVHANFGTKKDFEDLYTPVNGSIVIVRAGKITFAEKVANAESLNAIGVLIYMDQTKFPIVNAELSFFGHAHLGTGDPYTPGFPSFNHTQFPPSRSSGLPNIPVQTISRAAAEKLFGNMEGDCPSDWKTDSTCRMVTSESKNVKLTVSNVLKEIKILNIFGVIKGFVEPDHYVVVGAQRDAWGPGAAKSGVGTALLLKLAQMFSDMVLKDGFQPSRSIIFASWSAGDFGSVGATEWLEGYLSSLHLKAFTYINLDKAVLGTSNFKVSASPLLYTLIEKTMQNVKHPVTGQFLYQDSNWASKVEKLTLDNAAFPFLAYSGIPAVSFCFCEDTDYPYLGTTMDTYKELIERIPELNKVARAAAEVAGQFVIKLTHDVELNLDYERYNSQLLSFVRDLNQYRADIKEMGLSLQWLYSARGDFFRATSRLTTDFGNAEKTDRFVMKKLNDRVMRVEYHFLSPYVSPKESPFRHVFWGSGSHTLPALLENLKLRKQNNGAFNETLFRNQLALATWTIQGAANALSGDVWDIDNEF

B1: XQ-2d (ssDNA)
DNA: ACTCATAGGGTTAGGGGCTGCTGGCCAGATACTCAGATGGTAGGGTTACTATGAGC
- Kd: 0.0505 ± 0.0273 µM
